Data as given in patent publication US20030092885A1, “Solubility and stability enhancement tag for structural and ligand binding studies of proteins” (President and Fellows of Harvard College, priority 2001, published 2003).

Legend:
[1] = Solubility of target protein or complex with and without the small solubility and stability enhancing tag; assay type: physicochemical
[2] = Solution stability (time until the sample precipitates) with and without the tag; assay type: physicochemical; details: FAIM, 25° C.

B1: DFF45 NTD: N-terminal domain of human DNA fragmentation factor 45, unfolded when free (protein, UniProt O00273 1-116, looked up, fragment)
chain: MEVTGDAGVPESGEIRTLKPCLLRRNYSREQHGVAASCLEDLRSKACDILAIDKSLTPVTLVLAEDGTIVDDDDYFLCLPSNTKFVALASNEKWAYNNSDGGTAWISQESFDVDET
In the case of B1, the solubility ([1]; FIG. 4 legend) is reported as 200 µM.

B2: FAIM protein: 20 kDa apoptosis inhibitor in b cells, untagged (protein, UniProt Q9NVQ4 2-179, looked up)
Fas apoptotic inhibitory …: TDLVAVWDVALSDGVHKIEFEHGTTSGKRVVYVDGKEEIRKEWMFKLVGKETFYVGAAKTKATINIDAISGFAYEYTLEINGKSLKKYMEDRSKTTNTWVLHMDGENFRIVLEKDAMDVWCNGKKLETAGEFVDDGTETHFSIGNHDCYIKAVSSGKRKEGIIHTLIVDNREIPEIAS
With B2 the “time until precipitation from solution / stable in solution” value [2] was “one week” and the “can be concentrated up to” value ([1]; FAIM) was “up to 1 mM”.
